The values that follow come from patent US20230364207A1.

The target of one data set is trastuzumab. As to the kind of experiment: cell-based or functional assay.
The target in data set [1] is IgG in the sera of monkeys.
Data set [2] concerns the target IgG in the sera of rabbits.
In data set [3] the target is IgG1 in the sera of humans.
The target in data set [4] is human IVIg (an intravenous human immunoglobulin).
The target in data set [5] is rabbit IgG (rabbit polyclonal IgG antibody 1 and 2).

Some results are limits rather than exact numbers.

In the data set with trastuzumab, IdeE mutant T24S (enzyme) came in with a Fold of activity relative to wild-type (ELISA-based human IgG1 cleavage) of 2.18 fold.

In the data set with trastuzumab, “IdeE C-terminal truncated mutant WT_delC5 (enzyme)” showed a cleavage activity on human IgG1 relative to wild-type IdeE (SDS-PAGE) above 2 fold.

In the data set with trastuzumab, IdeE mutant R280H (enzyme) registered a Fold of activity relative to wild-type (ELISA-based human IgG1 cleavage) of 2.3 fold and an activity of cleaving human IgG1 relative to wild-type IdeE (SDS-PAGE) of 2 fold.

As for “IdeE C-terminal truncated mutant WT_delC10 (enzyme)”, the cleavage activity on human IgG1 relative to wild-type IdeE (SDS-PAGE) with trastuzumab was above 2 fold.

As to IdeE mutant R280K (enzyme), in the data set with trastuzumab, the Fold of activity relative to wild-type (ELISA-based human IgG1 cleavage) is 2.2 fold.

The molecule IdeE mutant T24G (enzyme) showed a Fold of activity relative to wild-type (ELISA-based human IgG1 cleavage) with trastuzumab of 2.09 fold.

IdeE mutant A59I (enzyme): the Fold of activity relative to wild-type (ELISA-based human IgG1 cleavage) in the data set with trastuzumab worked out at 2.31 fold.

On to IdeE mutant E97D (enzyme), for which, in the data set with trastuzumab, the Fold of activity relative to wild-type (ELISA-based human IgG1 cleavage) is 2 fold and the activity of cleaving human IgG1 relative to wild-type IdeE (SDS-PAGE) amounted to 2 fold.

In the data set with trastuzumab, IdeE mutant T8D (enzyme) displayed a Fold of activity relative to wild-type (ELISA-based human IgG1 cleavage) of 2.21 fold and an activity of cleaving human IgG1 relative to wild-type IdeE (SDS-PAGE) of 2 fold.

For IdeE mutant A10R (enzyme), the Fold of activity relative to wild-type (ELISA-based human IgG1 cleavage) in the data set with trastuzumab amounted to 2.2 fold.

In the data set with trastuzumab, IdeE mutant T8W (enzyme) returned a Fold of activity relative to wild-type (ELISA-based human IgG1 cleavage) of 2.58 fold and an activity of cleaving human IgG1 relative to wild-type IdeE (SDS-PAGE) of 2 fold.

In the data set with trastuzumab, IdeE mutant A59L (enzyme) had a Fold of activity relative to wild-type (ELISA-based human IgG1 cleavage) of 2.41 fold and an activity of cleaving human IgG1 relative to wild-type IdeE (SDS-PAGE) of 2 fold.

Consider IdeE mutant T8Y (enzyme), for which the Fold of activity relative to wild-type (ELISA-based human IgG1 cleavage) with trastuzumab turned out to be 2.3 fold.

With IdeE mutant A10K (enzyme), the Fold of activity relative to wild-type (ELISA-based human IgG1 cleavage) with trastuzumab came out at 1.99 fold.

On to IdeE mutant T8E (enzyme), for which, in the data set with trastuzumab, the Fold of activity relative to wild-type (ELISA-based human IgG1 cleavage) came out at 2.09 fold.

Regarding IdeE mutant T24A (enzyme), in the data set with trastuzumab, the Fold of activity relative to wild-type (ELISA-based human IgG1 cleavage) stood at 2.23 fold and the activity of cleaving human IgG1 relative to wild-type IdeE (SDS-PAGE) was 2 fold.

In the data set with trastuzumab, IdeE mutant A59V (enzyme) registered a Fold of activity relative to wild-type (ELISA-based human IgG1 cleavage) of 2.68 fold and an activity of cleaving human IgG1 relative to wild-type IdeE (SDS-PAGE) of 2 fold.

B1: IdeE combinatorial mutant E97D_del18 (protein)
chain: ITSVWTKGVTPLTPEQFRYNNEDVIHAPYLAHQGWYDITKAFDGKDNLLCGAATAGNMLHWWFDQNKTEIEAYLSKHPDKQKIIFNNQELFDLKAAIDTKDSQTNSQLFNYFRDKAFPNLSARQLGVMPDLVLDMFINGYYLNVFKTQSTDVNRPYQDKDKRGGIFDAVFTRGDQTTLLTARHDLKNKGLNDISTIIKQELTEGRALALSHTYANVSISHVINLWGADFNAEGNLEAIYVTDSDANASIGMKKYFVGINAHRHVAISAKKIEGENIGAQVLGLFTLSSGKDIWQKLSHHHHHH
Turning to B1, the “cleavage in mouse serum in vitro (SDS-PAGE, 25 kD Fc fragment)” value with IgG in the sera of mice is “has very low or no activity of cleaving IgG1 in the sera of mice”. Moreover, the “cleavage of serum IgG of different species (SDS-PAGE)” value in the data set with IgG in the sera of mice was “IgG in the sera of rats and mice was nearly uncleaved”; in data set [1], “E97D_del18 can effectively cleave IgG in the sera of rabbits, dogs and monkeys”; in the data set with IgG in the sera of pigs, “IgG in the sera of pigs was cleaved more effectively”; in [2], “IgG in the sera of rabbits was cleaved most effectively”; with IgG in the sera of rats, “IgG in the sera of rats and mice was nearly uncleaved”; with dog IgG, “E97D_del18 can effectively cleave IgG in the sera of rabbits, dogs and monkeys”. The “cleavage in human serum in vitro (SDS-PAGE, 25 kD Fc fragment)” value in data set [3] is “E97D_del18 can effectively and specifically cleave IgG1 in the sera of humans”. The “cleavage of immunoglobulins of different species (SDS-PAGE)” value with dog IgG is recorded as “E97D_del18 can effectively cleave dog IgG”; in [5], “E97D_del18 can effectively cleave ... rabbit IgG”. In addition, the “cleavage of human IVIg in mouse serum and plasma in vitro (SDS-PAGE)” value in [4] was “E97D_del18 can effectively cleave human IVIg in both the sera and plasmas of mice”.
